Data taken from publication PMC12063177.

Columns and labels:
[1] = biological target: streptavidin (Streptomyces avidinii) (UniProt P22629); details: cited from earlier work
[2] = biological target: YaxAΔ40B_(strepII-70aa) nanopore; test: single-channel nanopore electrical recording; apparent constants; SA titrated 1-25 nM in cis in 25% (v/v) mixed-protein solution (602 uM BSA, 35 uM HTf, 100 nM BT, 100 nM CRP before dilution); 80 nM biotin in trans; PDB11PEO8:DPhPC (1:1) hybrid bilayer; -75 mV sweeps protocol; 150 mM NaCl, 15 mM TrisHCl pH 7.5
[3] = biological target: YaxAΔ40B_(weak-50aa) nanopore; test: single-channel nanopore electrical recording; single pore in a DPhPC planar bilayer; SA 20 nM or BT 50 nM added to cis; -75 mV; 150 mM NaCl, 15 mM TrisHCl pH 7.5

Streptavidin, sequence (P22629 25-183): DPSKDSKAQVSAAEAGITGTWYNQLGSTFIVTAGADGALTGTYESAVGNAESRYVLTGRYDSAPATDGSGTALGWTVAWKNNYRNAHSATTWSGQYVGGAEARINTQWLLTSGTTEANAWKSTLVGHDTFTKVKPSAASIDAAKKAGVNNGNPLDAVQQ
streptavidin (Streptomyces avidinii), sequence (P22629 25-183): as above

For strepII-peptide, which Kd [1] is on record?
Its Kd is 70 µM.

Which Kd [2] does the source give for “Streptavidin (from UniProt P22629 25-183) (natural protein)” here?
The Kd was 0.023 µM.

And the koff [2]?
The koff was 0.2 s⁻¹.

And the kon [2]?
Its kon is 8.77e+06 M⁻¹ s⁻¹.

And the dwell time [3]?
The dwell time was 5580 ms.
